{"source": "paper PMC8690526", "about": "“Expression, purification and characterisation of a human anti-CDK4 single-chain variable fragment antibody” (BMC Biotechnology, 2021)", "conditions_in_all_cases": "both partners purified", "key": {"[1]": {"molecular_target": "T1, recombinant human cyclin-dependent kinase 4 (Homo sapiens, UniProt P11802)", "T1 construct": "cyclin-dependent kinase 4 (CDK4), human, recombinant; also called rhCDK4; CDK4", "T1 sequence (P11802 whole entry)": "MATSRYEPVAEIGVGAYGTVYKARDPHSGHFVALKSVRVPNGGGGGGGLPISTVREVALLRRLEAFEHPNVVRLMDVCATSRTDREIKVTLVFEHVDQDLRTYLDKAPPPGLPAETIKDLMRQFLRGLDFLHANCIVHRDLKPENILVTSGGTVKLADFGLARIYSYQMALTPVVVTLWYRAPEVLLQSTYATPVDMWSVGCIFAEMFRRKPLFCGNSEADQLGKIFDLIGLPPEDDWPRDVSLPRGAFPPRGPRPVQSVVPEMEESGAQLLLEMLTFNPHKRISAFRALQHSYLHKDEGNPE", "assay": "ELISA; non-competitive, affinity constant; plates coated with rhCDK4 at 8.0, 4.0, 2.0, 1.0 μg/mL; serial dilutions of AK2 (8.000-0.125 μg/mL); Kaff = (n − 1) / (n [Ab′] − [Ab]), n = [Ag] / [Ag′]; triplicates"}, "bovine serum albumin": {"molecular_target": "T2, bovine serum albumin (Bos taurus, UniProt P02769)", "T2 construct": "serum albumin, bovine; also called BSA", "T2 sequence (P02769 25-607)": "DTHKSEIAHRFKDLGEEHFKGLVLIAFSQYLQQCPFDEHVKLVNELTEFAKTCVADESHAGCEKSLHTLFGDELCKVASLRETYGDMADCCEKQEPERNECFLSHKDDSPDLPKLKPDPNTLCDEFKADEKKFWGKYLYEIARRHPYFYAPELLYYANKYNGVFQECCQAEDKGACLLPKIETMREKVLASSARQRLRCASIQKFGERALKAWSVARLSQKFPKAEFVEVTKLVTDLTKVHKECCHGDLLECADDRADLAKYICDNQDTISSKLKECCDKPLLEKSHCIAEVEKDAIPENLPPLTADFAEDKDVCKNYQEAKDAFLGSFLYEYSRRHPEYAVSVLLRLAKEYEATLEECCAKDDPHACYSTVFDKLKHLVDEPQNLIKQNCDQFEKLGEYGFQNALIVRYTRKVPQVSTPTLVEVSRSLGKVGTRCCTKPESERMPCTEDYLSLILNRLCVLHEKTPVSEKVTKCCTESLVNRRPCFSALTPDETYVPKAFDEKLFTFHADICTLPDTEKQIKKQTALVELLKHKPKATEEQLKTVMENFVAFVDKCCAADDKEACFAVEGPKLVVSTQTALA", "assay": "ELISA; non-competitive; plates coated with rhCDK4 or irrelevant proteins (rhPHD2, rhCOX-2, BSA); purified AK2 10 μg/mL in 3% non-fat milk in PBST, 2 h; detection by anti-V5 tag antibody and HRP-conjugated IgG, A492"}, "[2]": {"molecular_target": "T3, recombinant human prolyl hydroxylase 2 (Homo sapiens, UniProt Q9GZT9)", "T3 construct": "prolyl hydroxylase 2 (PHD2), human, recombinant; also called rhPHD2; PHD2", "T3 sequence (Q9GZT9 whole entry)": "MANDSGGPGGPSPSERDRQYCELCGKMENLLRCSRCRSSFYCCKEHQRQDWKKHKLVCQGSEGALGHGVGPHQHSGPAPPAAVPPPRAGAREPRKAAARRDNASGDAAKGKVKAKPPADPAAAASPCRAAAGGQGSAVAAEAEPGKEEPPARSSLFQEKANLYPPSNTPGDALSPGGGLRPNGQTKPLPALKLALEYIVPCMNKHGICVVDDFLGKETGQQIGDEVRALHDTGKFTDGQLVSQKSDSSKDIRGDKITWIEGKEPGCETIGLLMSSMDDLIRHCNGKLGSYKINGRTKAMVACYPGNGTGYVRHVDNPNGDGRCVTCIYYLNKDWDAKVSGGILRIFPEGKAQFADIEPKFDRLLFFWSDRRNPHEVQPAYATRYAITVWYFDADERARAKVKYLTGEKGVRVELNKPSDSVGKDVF", "assay": "ELISA; non-competitive; plates coated with rhCDK4 or irrelevant proteins (rhPHD2, rhCOX-2, BSA); purified AK2 10 μg/mL in 3% non-fat milk in PBST, 2 h; detection by anti-V5 tag antibody and HRP-conjugated IgG, A492"}}}
{"binder": "human anti-CDK4 single-chain variable fragment antibody AK2 (scFv, V domains shown, AK2-VH; linker peptide between the variable regions; AK2-VL; A pelB leader stands upstream of AK2 in the phagemid; About 30 kD on SDS-PAGE; also called soluble AK2; purified AK2; source: E. coli HB2151 (AK2/HB2151), IPTG-induced, secreted into the culture supernatant; used as culture supernatant or purified (ammonium sulphate precipitation, Ni2+-NTA, PD-10 desalting); …) VH: QVQLQESGGGLVQPGGSLRLSCAASGFTFSSYAMSWVRQAPGKGLEWVSAISGSGGSTYYADSVEGRFTISRDNSKNTLYLQMNSLRAEDTAVYYCARRLTGFDYWGQGTLVTVSS VL: QSALTQPPSASGSPGQSVTISCTGTSSDVGGYNYVSWYQQHPGKAPKLMIYDVSKRPSGVSNRFSGSKSGNTASLTIFGLQAEDEADYYCSSYTSSSTLVFGGGTKLTVL", "values": [{"measurement": "Ka", "setting": "[1]", "result": "2.48e+07", "unit": "M⁻¹"}, {"measurement": "binding result", "setting": "bovine serum albumin", "result": "no binding (tested: 10 μg/mL AK2)"}, {"measurement": "binding result", "setting": "[2]", "result": "no binding (tested: 10 μg/mL AK2)"}]}
